Several values for one entry are separate records, joined by “and”; a condition that tells them apart may be missing. Equal entries are not always repeated.
Details: Saccharolobus solfataricus (strain ATCC 35092 / DSM 1617 / JCM 11322 / P2), Thermal, DSC, Glycine 10 mM, transition: 3, reversible: yes, whole UniProt chain shown

B1: DNA/RNA-binding protein Alba 2 wild type, Q97ZF4 (protein)
chain: MTEKLNEIVVRKTKNVEDHVLDVIVLFNQGIDEVILKGTGREISKAVDVYNSLKDRLGDGVQLVNVQTGSEVRDRRRISYILLRLKRVY
unfolding enthalpy (calorimetric) (pH 3.2): 20.3 kcal/mol and 42.8 kcal/mol | unfolding enthalpy (van 't Hoff) (pH 3.2): 39.1 kcal/mol and 85.5 kcal/mol | Tm (pH 4.2): 116 °C | unfolding enthalpy (calorimetric) (pH 4.2): 47.8 kcal/mol | unfolding enthalpy (van 't Hoff) (pH 4.2): 93.5 kcal/mol | unfolding enthalpy (calorimetric) (pH 4.8): 37.8 kcal/mol and 47.3 kcal/mol | unfolding enthalpy (van 't Hoff) (pH 4.8): 75.5 kcal/mol and 92.7 kcal/mol | unfolding enthalpy (calorimetric) (pH 5.6): 44.8 kcal/mol and 56.9 kcal/mol | unfolding enthalpy (van 't Hoff) (pH 5.6): 95.5 kcal/mol and 105 kcal/mol | unfolding enthalpy (calorimetric) (pH 7.1): 27 kcal/mol and 44.9 kcal/mol | unfolding enthalpy (van 't Hoff) (pH 7.1): 172 kcal/mol and 84.7 kcal/mol
